Measurements from PMC2064704.

What was measured:
[1] = target: endogenous actin filaments of XTC cells (Xenopus laevis (endogenous in XTC)) (UniProt O93400); assay: single-molecule speckle microscopy
[2] = target: endogenous actin filaments of XTC cells (Xenopus laevis (endogenous in XTC)) (UniProt O93400); assay: decay of EGFP fluorescence in permeabilized cells

Substance	half-life of speckles in lamellipodia [1]	half-life of persistent speckles after 1 μM Jas [1]	half-life of persistent speckles before Jas [1]	half-life of persistent speckles in lamella away from stress fibers [1]	half-life of persistent speckles on stress fibers [1]	decay rate of fluorescence in lamellipodia of permeabilized cells [2]
CPβ1-EGFP expressed in XTC cells (coupled with endogenous CPα subunits) (complex)	1.23 s	–	–	–	–	–
EGFP-CPβ1 expressed in XTC cells (coupled with endogenous CPα subunits) (complex)	1.2 s	68.9 s	4.26 s	0.95 s	2.9 s	0.00017 s⁻¹
